Series [1] concerns the molecule itself. Description: cryo-EM structure; protein purified by Ni-NTA and size exclusion in buffer C (100 mM sodium chloride, 25 mM potassium phosphate pH 8.0, 1 mM DTT); Titan Krios 300 kV, K3 detector; processed in RELION-5.0; homo-oligomer seen in the map.
Substrate in series [2]: O=CCO
Briefly: purified protein. As to conditions: 30 °C. Type of series: biochemical, Paracoccus denitrificans.

Substrate in series [3]: CC=O
Description: purified protein. Type of series: biochemical, Paracoccus denitrificans. As to conditions: 30 °C.

Substrate in series [4]: CCO
Briefly: purified protein. Particulars: 100 mM glycine-NaOH pH 10, 2.4 mM NAD+, 30 °C, oxidation.

Substrate in series [5]: CC(O)CO
Description: purified protein. Particulars: 100 mM glycine-NaOH pH 10, 2.4 mM NAD+, 30 °C, oxidation. The format is biochemical, Paracoccus denitrificans.

Substrate in series [6]: OCCO
Description: purified protein. The format is biochemical, Paracoccus denitrificans. As to conditions: 100 mM glycine-NaOH pH 10, 2.4 mM NAD+, 30 °C, oxidation.

Substrate in series [7]: CCCCO
Description: purified protein. Type of series: biochemical, Paracoccus denitrificans. As to conditions: 100 mM glycine-NaOH pH 10, 2.4 mM NAD+, 30 °C, oxidation.

Substrate in series [8]: CCCO
Briefly: purified protein. Type of series: biochemical, Paracoccus denitrificans. As to conditions: 100 mM glycine-NaOH pH 10, 2.4 mM NAD+, 30 °C, oxidation.

[9] abbreviates: 100 mM potassium phosphate pH 7.5, 2.4 mM NAD+, oxidation.
The mark [10] stands for this setting: 100 mM potassium phosphate pH 7.5, 0.2 mM NADH, reduction.

Changes are numbered by the printed parent chain. Names and notes keep the numbering of the source.

One may read the stoichiometry N as the number of molecules, sites or subunits per partner or assembly. As usually defined, the Km is the concentration of substrate that gives half-maximal velocity. As a reminder, the kcat is the maximal rate divided by the concentration of active sites. By kcat/Km is commonly meant the turnover number divided by the Michaelis constant.

B1: EtgA, NAD-dependent aldehyde dehydrogenase (Pden_2366) (enzyme, Paracoccus denitrificans DSM 413)
chain: MPNDQTHPFRGVNALPFEERYDNFIGGEWVAPVSGRYFTNTTPITGAEIGQIARSEAGDIELALDAAHAAKEKWGATSPAERANIMLKIADRMERNLELLATAETWDNGKPIRETMAADLPLAIDHFRYFAGVLRAQEGSISQIDDDTVAYHFHEPLGVVGQIIPWNFPLLMACWKLAPAIAAGNCVVLKPAEQTPAGIMVWANLIGDLLPPGVLNIVNGFGLEAGKPLASSNRIAKIAFTGETTTGRLIMQYASENLIPVTLELGGKSPNIFFADVAREDDDFFDKALEGFTMFALNQGEVCTCPSRVLIQESIYDKFMERAVQRVQAIKQGDPRESDTMIGAQASSEQKEKILSYLDIGKKEGAEVLTGGKAADLGGELSGGYYIEPTIFRGNNKMRIFQEEIFGPVVSVTTFKDQAEALEIANDTLYGLGAGVWSRDANTCYRMGRGIKAGRVWTNCYHAYPAHAAFGGYKQSGIGRETHKMMLDHYQQTKNMLVSYSPKKLGFF
notes: EtgA, NAD-dependent aldehyde dehydrogenase of Paracoccus denitrificans DSM 413, gene Pden_2366 amplified from genomic DNA and cloned into pET16b; also called aldehyde dehydrogenase EtgA; source: E. coli BL21 AI, purified (Ni-NTA, desalting, size exclusion on Superdex 200 Increase)
With B1, the “stoichiometry N” value in series [1] worked out at 4. Moreover, in the series “purified protein [2]” (setting [9]), the Km turned out to be 120 ± 10 µM, the kcat was 6.3 ± 0.2 s⁻¹ and the kcat/Km was 51300 ± 4900 M⁻¹ s⁻¹. Further, in “purified protein [3]” (setting [9]), the Michaelis-Menten constant (Km) worked out at 9 ± 1 µM, the kcat turned out to be 1.3 ± 0.1 s⁻¹ and the kcat/Km was 135000 ± 21000 M⁻¹ s⁻¹.

B2: EtgB, NAD-dependent alcohol dehydrogenase (Pden_2367) (enzyme, Paracoccus denitrificans DSM 413)
chain: MAKTMKAAVVREFGKPLTIDEVPVPEPGPGMIQVRIQASGVCHTDLHAAEGDWPVKPNPPFIPGHEGVGFVSAVGAGVKHVKEGDRVGVPWLYTACGHCRHCLGGWETLCESQLNTGYSVNGGFADYVVADPNYVGHLPKNVDFLDIAPVLCAGVTVYKGLKVTDTKPGDWVVISGIGGLGHMAVQYAKAMGMNVAAVDIDDEKLALARKLGATVTVNAATEPDPAAAIRKQTDGGAQGVLVTAVGRKAFEQAIGMVARGGTVALNGLPPGDFPLDIFGMVLNGITVRGSIVGTRLDLQESLDFAGDGKVKATVHKAKLEDINNIFGQMHKGQIEGRMVLDMAG
notes: The enzyme holds zinc ions; also called EtgB WT; alcohol dehydrogenase EtgB; source: E. coli BL21 AI, purified (Ni-NTA, desalting, size exclusion on Superdex 200 Increase)
In the case of B2, the Km in “purified protein [4]” was 120 ± 10 µM; in “purified protein [2]” (setting [10]), 1040 ± 60 µM; in the series “purified protein [3]” (setting [10]), 40 ± 10 µM; in “purified protein [5]”, 59460 ± 3310 µM; in the series “purified protein [6]”, 11050 ± 1320 µM; in the series “purified protein [7]”, 40 ± 10 µM. In “purified protein [8]”, the Michaelis-Menten constant (Km) was found to be 110 ± 10 µM. The kcat was found to be 23.5 s⁻¹ in the series “purified protein [4]”; 50.1 ± 1.2 s⁻¹ in “purified protein [2]” (setting [10]); 158 ± 2.9 s⁻¹ in “purified protein [3]” (setting [10]); 3.5 ± 0.1 s⁻¹ in “purified protein [5]”; 7.2 ± 0.2 s⁻¹ in the series “purified protein [6]”; 8.4 ± 0.1 s⁻¹ in “purified protein [7]”. The kcat in the series “purified protein [8]” stood at 18.7 ± 0.5 s⁻¹. Also, the catalytic efficiency (kcat/Km) is 201000 M⁻¹ s⁻¹ in the series “purified protein [4]”; 48300 ± 3200 M⁻¹ s⁻¹ in “purified protein [2]” (setting [10]); 3.84e+06 ± 240000 M⁻¹ s⁻¹ in the series “purified protein [3]” (setting [10]); 59.6 ± 1 M⁻¹ s⁻¹ in the series “purified protein [5]”; 651 ± 22 M⁻¹ s⁻¹ in the series “purified protein [6]”; 213000 ± 14000 M⁻¹ s⁻¹ in “purified protein [7]”. For the same protein, the kcat/Km in the series “purified protein [8]” worked out at 176000 ± 14000 M⁻¹ s⁻¹. The “stoichiometry N” value in series [1] was found to be 4.

B3: EtgB (Paracoccus denitrificans PD1222; T44S) (protein)
chain: B2 chain with T44S
notes: pET16b, His-tagged, E. coli BL21 AI, Ni-NTA purified; homotetramer; zinc-dependent medium-chain alcohol dehydrogenase
With B3, the Michaelis-Menten constant (Km) turned out to be 100 ± 20 µM in the series “purified protein [4]”, 27680 ± 1730 µM in the series “purified protein [5]” and 10170 ± 360 µM in “purified protein [6]”. Also, the figures for the kcat in the series “purified protein [4]”, in “purified protein [5]” and in the series “purified protein [6]” were 3.2 s⁻¹, 1.6 ± 0.1 s⁻¹ and 0.7 ± 0.1 s⁻¹, respectively. Besides, the values for the kcat/Km in the series “purified protein [4]”, in “purified protein [5]” and in “purified protein [6]” were 33200 M⁻¹ s⁻¹, 57.8 ± 0.7 M⁻¹ s⁻¹ and 70.2 ± 2.6 M⁻¹ s⁻¹, respectively.

B4: EtgB (Paracoccus denitrificans PD1222; H47N/T44S) (protein)
chain: B2 chain with T44S, H47N
notes: as for B3
For B4, in “purified protein [4]”, the Km was 100 ± 20 µM, the turnover number (kcat) turned out to be 10.7 s⁻¹ and the catalytic efficiency (kcat/Km) came to 105000 M⁻¹ s⁻¹. Also, in “purified protein [5]”, the Km was determined as 19750 ± 2980 µM, the kcat turned out to be 6.5 ± 0.2 s⁻¹ and the kcat/Km turned out to be 330 ± 11 M⁻¹ s⁻¹. In addition, in “purified protein [6]”, the Km turned out to be 11510 ± 1470 µM, the kcat is 2.9 ± 0.1 s⁻¹ and the catalytic efficiency (kcat/Km) stood at 251 ± 5 M⁻¹ s⁻¹.

B5: EtgB (Paracoccus denitrificans PD1222; H47N) (protein)
chain: B2 chain with H47N
notes: as for B3
As for B5, in the series “purified protein [4]”, the Michaelis constant (Km) was found to be 230 ± 10 µM, the kcat came out at 25.2 s⁻¹ and the kcat/Km is 108000 M⁻¹ s⁻¹. Also, in “purified protein [5]”, the Km came out at 67180 ± 8900 µM, the kcat was determined as 13.2 ± 0.6 s⁻¹ and the kcat/Km was determined as 197 ± 8 M⁻¹ s⁻¹. Besides, in “purified protein [6]”, the Km was 53690 ± 4040 µM, the turnover number (kcat) amounted to 14.7 ± 0.3 s⁻¹ and the kcat/Km was 274 ± 6 M⁻¹ s⁻¹.

Values taken from paper PMC12214560, “NAD-dependent dehydrogenases enable efficient growth of Paracoccus denitrificans on the PET monomer ethylene glycol” (Nature Communications, 2025).
